Results taken from US20150344570A1 (published 2015).

B1: GpH7-A5/GpH7-B3 variant E333_20W/GpL16-k0 (antibody, human IgG1, kappa)
heavy 1: not shown
heavy 2: not shown
light: DIVMTQSPLSLPVTPGEPASISCQASESLVHSNRNTYLHWYLQKPGQSPQLLIYKVSNRFSGVPDRFSGSGSGTDFTLKISRVEAEDVGVYYCSQNTHVPPTFGQGTKVEIERTVAAPSVFIFPPSDEQLKSGTASVVCLLNNFYPREAKVQWKVDNALQSGNSQESVTEQDSKDSTYSLSSTLTLSKADYEKHKVYACEVTHQGLSSPVTKSFNRGEC
notes: also called He Ab
B2: GpH7-A5/GpH7-B3 variant I336_02A/GpL16-k0 (antibody, human IgG1, kappa)
heavy 1: not shown
heavy 2: not shown
light: B1 light
notes: also called He Ab
B3: GpH7-A5/GpH7-B3 variant I332_13S/GpL16-k0 (antibody, human IgG1, kappa)
heavy 1: not shown
heavy 2: not shown
light: B1 light
notes: also called He Ab
B4: GpH7-A5/GpH7-B3 variant I336_13S/GpL16-k0 (antibody, human IgG1, kappa)
heavy 1: not shown
heavy 2: not shown
light: B1 light
notes: also called He Ab
B5: GpH7-A5/GpH7-B3 variant Q295_14T/GpL16-k0 (antibody, human IgG1, kappa)
heavy 1: not shown
heavy 2: not shown
light: B1 light
notes: also called He Ab
B6: GpH7-A5/GpH7-B3 variant I332_01G/GpL16-k0 (antibody, human IgG1, kappa)
heavy 1: not shown
heavy 2: not shown
light: B1 light
notes: also called He Ab
B7: GpH7-A5/GpH7-B3 variant I336_18N/GpL16-k0 (antibody, human IgG1, kappa)
heavy 1: not shown
heavy 2: not shown
light: B1 light
notes: also called He Ab
B8: GpH7-A5/GpH7-B3 variant K334_01G/GpL16-k0 (antibody, human IgG1, kappa)
heavy 1: not shown
heavy 2: not shown
light: B1 light
notes: also called He Ab
B9: GpH7-A5/GpH7-B3 variant Q295_02A/GpL16-k0 (antibody, human IgG1, kappa)
heavy 1: not shown
heavy 2: not shown
light: B1 light
notes: also called He Ab
B10: GpH7-A5/GpH7-B3 variant Q295_10E/GpL16-k0 (antibody, human IgG1, kappa)
heavy 1: not shown
heavy 2: not shown
light: B1 light
notes: also called He Ab
B11: GpH7-A5/GpH7-B3 variant S298_02A/GpL16-k0 (antibody, human IgG1, kappa)
heavy 1: not shown
heavy 2: not shown
light: B1 light
notes: also called He Ab; GpH7-A5/GpH7-B3-15-02A/GpL16-k0
B12: GpH7-A5/GpH7-B3 variant I336_10E/GpL16-k0 (antibody, human IgG1, kappa)
heavy 1: not shown
heavy 2: not shown
light: B1 light
notes: also called He Ab
B13: GpH7-A5/GpH7-B3 variant K334_09D/GpL16-k0 (antibody, human IgG1, kappa)
heavy 1: not shown
heavy 2: not shown
light: B1 light
notes: also called He Ab
B14: GpH7-A5/GpH7-B3 variant S298_03V/GpL16-k0 (antibody, human IgG1, kappa)
heavy 1: not shown
heavy 2: not shown
light: B1 light
notes: also called He Ab
B15: GpH7-A5/GpH7-B3 variant I336_14T/GpL16-k0 (antibody, human IgG1, kappa)
heavy 1: not shown
heavy 2: not shown
light: B1 light
notes: also called He Ab
B16: GpH7-A5/GpH7-B3 variant I332_19Q/GpL16-k0 (antibody, human IgG1, kappa)
heavy 1: not shown
heavy 2: not shown
light: B1 light
notes: also called He Ab
B17: GpH7-A5/GpH7-B3 variant S298_14T/GpL16-k0 (antibody, human IgG1, kappa)
heavy 1: not shown
heavy 2: not shown
light: B1 light
notes: also called He Ab
B18: GpH7-A5/GpH7-B3 variant I336_09D/GpL16-k0 (antibody, human IgG1, kappa)
heavy 1: not shown
heavy 2: not shown
light: B1 light
notes: also called He Ab
B19: GpH7-A5/GpH7-B3 variant I336_03V/GpL16-k0 (antibody, human IgG1, kappa)
heavy 1: not shown
heavy 2: not shown
light: B1 light
notes: also called He Ab
B20: GpH7-A5/GpH7-B3 variant S324_01G/GpL16-k0 (antibody, human IgG1, kappa)
heavy 1: not shown
heavy 2: not shown
light: B1 light
notes: also called He Ab

Assays:
[1] = molecular target: T1, FcγRIIIa extracellular domain with C-terminal His tag (human, UniProt P08637 17-208); assay: SPR, binding relative to GpH7-A5/GpH7-B3/GpL16-k0 = 100
T1 construct: extracellular domain; also called 3a; FcgRIIIa
T1 sequence (P08637 17-208): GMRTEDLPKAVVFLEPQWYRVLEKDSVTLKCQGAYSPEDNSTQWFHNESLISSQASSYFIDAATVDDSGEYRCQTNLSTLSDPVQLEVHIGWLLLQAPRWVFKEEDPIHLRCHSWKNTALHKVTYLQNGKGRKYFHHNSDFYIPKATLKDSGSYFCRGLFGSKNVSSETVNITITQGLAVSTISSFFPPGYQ
Description: (§1) The heterodimerized antibodies He Abs in which one of the H chains was introduced with an alteration were assayed for their binding activities to each activating FcγR and inhibitory FcγR according to the method described in Example 4. […] The activating FcγRs in FIGS. 26, 27, 28, and 29 are FcγRIa, FcγRIIa (R), FcγRIIa (H), and FcγRIIIa, respectively.
(§2) Analysis of interaction between objective antibody and the FcγR was carried out using Biacore T100 (GE Healthcare). HBS-EP+ (GE Healthcare) was used as the running buffer, and the measurement temperature was set to 25° C. Chips produced by immobilizing the antigen peptide by the amine coupling method to a Series S Sencor Chip CM5 (GE Healthcare), or alternatively, chips produced by allowing preliminarily biotinylated antigen peptides to interact with and immobilize onto a Series S Sensor Chip SA (certified) (GE Healthcare) were used. Antibodies of interest were captured onto an antigen peptide-immobilized chip, and allowed to interact to each FcγR diluted with running buffer. To regenerate and repeatedly use the chip, the antibodies captured on the chip were washed off by reacting 10 mM glycine-HCl, pH 1.5.

[2] = molecular target: T2, FcγRIIb extracellular domain with C-terminal His tag (human, UniProt P31994 43-217); assay: as above
T2 construct: extracellular domain; also called 2b; FcgRIIb
T2 sequence (looked up): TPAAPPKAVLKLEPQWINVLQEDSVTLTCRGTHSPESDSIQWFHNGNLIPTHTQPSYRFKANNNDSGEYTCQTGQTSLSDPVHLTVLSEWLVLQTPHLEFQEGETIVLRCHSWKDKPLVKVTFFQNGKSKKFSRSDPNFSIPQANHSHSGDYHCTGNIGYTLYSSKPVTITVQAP
Description: as §1, §2

| Binder | He/Con_3a [1] | He/Con_2b [2] |
| --- | --- | --- |
| B1 | 101 % of control | 89.5 % of control |
| B2 | 111 % of control | 84.9 % of control |
| B3 | 104 % of control | 98.4 % of control |
| B4 | 102 % of control | 83.7 % of control |
| B5 | 115 % of control | 66.8 % of control |
| B6 | 111 % of control | 87.1 % of control |
| B7 | 104 % of control | 97.6 % of control |
| B8 | 121 % of control | 92.5 % of control |
| B9 | 106 % of control | 79.7 % of control |
| B10 | 100 % of control | 94.8 % of control |
| B11 | 160 % of control | 73.4 % of control |
| B12 | 119 % of control | 89.8 % of control |
| B13 | 160 % of control | 94.8 % of control |
| B14 | 109 % of control | 64.5 % of control |
| B15 | 108 % of control | 89.5 % of control |
| B16 | 110 % of control | 94.3 % of control |
| B17 | 113 % of control | 77.9 % of control |
| B18 | 106 % of control | 92.1 % of control |
| B19 | 112 % of control | 90.3 % of control |
| B20 | 105 % of control | 81.1 % of control |
